Data reported in patent US20240287186A1.

Target: CD3 (target of Table E-1) (UniProt P07766)
Assay: Biacore (SPR; format not stated)

- Kd: 9.62 nM
Substance: Anti-CD3 Fab OKT3
